# Test results reported in publication PMC7039211, “Cryo-EM structure of the complete and ligand-saturated insulin receptor ectodomain” (The Journal of Cell Biology, 2019).
# B1: human insulin receptor ectodomain protomer IRαβ0 (domain or fragment)
# chain 1: HLYPGEVCPGMDIRNNLTRLHELENCSVIEGHLQILLMFKTRPEDFRDLSFPKLIMITDYLLLFRVYGLESLKDLFPNLTVIRGSRLFFNYALVIFEMVHLKELGLYNLMNITRGSVRIEKNNELCYLATIDWSRILDSVEDNYIVLNKDDNEECGDICPGTAKGKTNCPATVINGQFVERCWTHSHCQKVCPTICKSHGCTAEGLCCHSECLGNCSQPDDPTKCVACRNFYLDGRCVETCPPPYYHFQDWRCVNFSFCQDLHHKCKNSRRQGCHQYVIHNNKCIPECPSGYTMNSSNLLCTPCLGPCPKVCHLLEGEKTIDSVTSAQELRGCTVINGSLIINIRGGNNLAAELEANLGLIEEISGYLKIRRSYALVSLSFFRKLRLIRGETLEIGNYSFYALDNQNLRQLWDWSKHNLTITQGKLFFHYNPKLCLSEIHKMEEVSGTKGRQERNDIALKTNGDQASCENELLKFSYIRTSFDKILLRWEPYWPPDFRDLLGFMLFYKEAPYQNVTEFDGQDACGSNSWTVVDIDPPLRSNDPKSQNHPGWLMRGLKPWTQYAIFVKTLVTFSDERRTYGAKSDIIYVQTDATNPSVPLDPISVSNSSSQIILKWKPPSDPNGNITHYLVFWERQAEDSELFELDYCLKGLKLPSRTWSPPFESEDSQKHNQSEYEDSAGECCSCPKTDSQILKELEESSFRKTFEDYLHNVVFVPRPSRKRR
# chain 2: SLGDVGNVTVAVPTVAAFPNTSSTSVPTSPEEHRPFEKVVNKESLVISGLRHFTGYRIELQACNQDTPEERCSVAAYVSARTMPEAKADDIVGPVTHEIFENNVVHLMWQEPKEPNGLIVLYEVSYRRYGDEELHLCVSRKHFALERGCRLRGLSPGNYSVRIRATSLAGNGSWTEPTYFYVTDYLDVPSNIAK
# modifications: glycosylated | glycosylated
# Target: the molecule itself
# Experiment: cryo-EM structure; ~1.4 µM IR-ECD with ~40 µM insulin (28x molar excess), ~30 min at 4°C, HBS; no symmetry imposed; saturated state, 4.3 Å
protein,measurement,value
B1,stoichiometry N,2
